Measured values published in patent US8420776B2, “Ube2G2 binding domain in the ubiquitin ligase gp78 and methods of use thereof” (The United States of America, as Represented by the …, priority 2004, dated 2013).

Key:
Ubc7p = target: T1, Ubc7p (Saccharomyces cerevisiae, UniProt Q02159); test: GST pull-down binding of in vitro translated Ubc7p; parameters: species or system yeast; conditions: GST fusion pull-down
T1 construct: made in house; host or cells: in vitro translation in wheat germ from pCDNA-DEST47
T1 sequence (Q02159 1-165): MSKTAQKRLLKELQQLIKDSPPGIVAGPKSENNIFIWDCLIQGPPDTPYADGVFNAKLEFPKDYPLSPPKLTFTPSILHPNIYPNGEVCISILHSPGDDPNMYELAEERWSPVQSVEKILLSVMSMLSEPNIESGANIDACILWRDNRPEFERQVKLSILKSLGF
Description: (§1) GST fusions were purified from E. Coli. Binding was carried out using equi-molar amount of fusion proteins measured by Commassie blue staining. Generally, 20 picomoles/sample were used. In vitro translated E2 was generated by coupled transcription and translation using 35S methionine in either wheat germ or rabbit reticulocyte lysate. Binding assays using in vitro translated E2 was carried out by incubating GST protein pre-bound to Glutathione-sepharose 4B with […] of ^35S-methionine labeled E2 in binding buffer (25 mM Tris-HCl, pH 7.4; 50 mM NaCl, 5 mM DTT; and 0.5% NP-40) overnight at 4° C. Beads were washed with binding buffer and resolved by SDS-PAGE under reducing conditions. Analysis was by Storm PhosphoImager (Applied Biosystems, Foster City, Calif.). Direct binding assays used wild type His6-MmUbc7 (His6-Ube2G2) and Glutathione-sepharose bound GST fusions. Beadbound GST protein was incubated with 100 ng purified His6-MmUbc7 in binding buffer and washed and eluted as above. After transfer to Hybond-P (Amersham Biosciences) binding was assessed with anti-His6 followed by Enhanced Chemiluminescence ECL; Pierce). Ubiquitin binding studies were performed with binding and washing as above using 1 μg K48 tetra-ubiquitin produced as described (Piotrowski et al., 1997). Detection was by anti-ubiquitin immunoblotting. […]

Ube2G2/MmUbc7 = target: T2, Ube2G2/MmUbc7 (Mus musculus, UniProt P60605); test: GST pull-down binding of in vitro translated 35S-Met Ube2G2/MmUbc7; parameters: species or system human; conditions: GST fusion pull-down; 35S-Met labeled E2
T2 construct: made in house; host or cells: coupled in vitro transcription/translation in rabbit reticulocyte lysate or wheat germ
T2 sequence (P60605 1-165): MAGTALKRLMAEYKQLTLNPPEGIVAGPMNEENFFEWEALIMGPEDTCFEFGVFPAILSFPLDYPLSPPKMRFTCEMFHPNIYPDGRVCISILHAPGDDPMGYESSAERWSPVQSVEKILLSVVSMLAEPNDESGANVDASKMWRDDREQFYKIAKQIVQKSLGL
Description: GST fusions were purified from E. Coli. Binding was carried out using equi-molar amount of fusion proteins measured by Commassie blue staining. Generally, 20 picomoles/sample were used. In vitro translated E2 was generated by coupled transcription and translation using 35S methionine in either wheat germ or rabbit reticulocyte lysate. […] Beads were washed with binding buffer and resolved by SDS-PAGE under reducing conditions. Analysis was by Storm PhosphoImager (Applied Biosystems, Foster City, Calif.). Direct binding assays used wild type His6-MmUbc7 (His6-Ube2G2) and Glutathione-sepharose bound GST fusions. Beadbound GST protein was incubated with 100 ng purified His6-MmUbc7 in binding buffer and washed and eluted as above. After transfer to Hybond-P (Amersham Biosciences) binding was assessed with anti-His6 followed by Enhanced Chemiluminescence ECL; Pierce).
The E2 enzymes were in vitro translated using wheat germ.
GST fusion proteins encoding the regions indicated in FIGS. 3A-3C were evaluated for the ability to bind to Ube2G2/MmUbc7 that had been in vitro transcribed and translated in rabbit reticulocyte lysate. gp78C represents the entire C-terminal cytoplasmic domain of gp78 (amino acid residues 309-643 of SEQ ID NO:2).

UbcH5B = target: T3, UbcH5B (Homo sapiens, UniProt P62837); test: GST pull-down binding of in vitro translated UbcH5B; conditions: GST fusion pull-down
T3 construct: made in house; host or cells: in vitro translation in wheat germ
T3 sequence (P62837 whole entry, the tested form may be a part): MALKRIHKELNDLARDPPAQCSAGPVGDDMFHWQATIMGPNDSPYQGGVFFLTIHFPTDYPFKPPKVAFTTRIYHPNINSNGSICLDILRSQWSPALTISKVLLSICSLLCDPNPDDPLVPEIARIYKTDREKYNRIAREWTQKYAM
Description: as §1

Ube2G1 = target: T4, Ube2G1 (Rattus norvegicus, UniProt P62255); test: GST pull-down binding of in vitro translated Ube2G1; conditions: GST fusion pull-down
T4 construct: made in house; host or cells: in vitro translation in wheat germ (similar results in reticulocyte lysate)
T4 sequence (P62255 1-170): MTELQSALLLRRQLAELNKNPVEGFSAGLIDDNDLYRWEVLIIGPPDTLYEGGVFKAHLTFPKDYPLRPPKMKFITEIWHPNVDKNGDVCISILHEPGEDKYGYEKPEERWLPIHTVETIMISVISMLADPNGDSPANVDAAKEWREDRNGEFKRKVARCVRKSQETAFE
From the text: Plasmids encoding the following have been described: rat Ubc7 (Ube2g1) (Lin and Wing, 1999); UbcH5B (Jensen et al., 1995); Myc-MmUbc7, C89S Myc-MmUbc7, HA-CD3-δ and 2B4 TCR-α (Tiwari and Weissman, 2001); GST-gp78 309 to 643, 508 or 428 and full length gp78 and the double RING finger mutation gp78Rf-m in pCINeo (Fang et al., 2001); and GST-UBA-Cbl-b (Davies et al., 2004). Plasmids encoding Ubc7p and His6-MmUbc7 were generated by PCR and subcloned into pCDNA-DEST47 or pExp17 respectively using Gateway (Invitrogen, Carlsbad, Calif.). GST-AO7 (92 to 259) was subcloned from full length A07 (Lorick et al., 1999). GST-gp78 beginning at 429, 503, 522, 542, 561, 574, 587, or 596 and ending at 643 GST-gp78 beginning at 435 and ending at 507 and GST-Cue1p 24-203 (Cue1pC) were generated by PCR and cloning into pGEX4T-1 (Amersham Biosciences, Piscataway, N.J.). N-terminal Flag-tagged constructs were created by PCR and cloning into pFlag-CMV6 (Sigma). N-terminal GFP-tagged constructs were generated by subcloning from pFLAG-CMV6 to pEGFP-C1 (BD Biosciences, Palo Alto, Calif.). […]
GST fusions were purified from E. Coli. Binding was carried out using equi-molar amount of fusion proteins measured by Commassie blue staining. […] After transfer to Hybond-P (Amersham Biosciences) binding was assessed with anti-His6 followed by Enhanced Chemiluminescence ECL; Pierce). […]

[1] = target: T5, lysine 48-linked (K48) tetra-ubiquitin (Homo sapiens, UniProt P0CG47); test: Tetra-ubiquitin binding to GST fusions; conditions: anti-ubiquitin immunoblot
T5 construct: 1 μg K48 tetra-ubiquitin produced as described (Piotrowski et al., 1997); made in house
Description: (§2) GST fusions were purified from E. Coli. Binding was carried out using equi-molar amount of fusion proteins measured by Commassie blue staining. Generally, 20 picomoles/sample were used. In vitro translated E2 was generated by coupled transcription and translation using 35S methionine in either wheat germ or rabbit reticulocyte lysate. Binding assays using in vitro translated E2 was carried out by incubating GST protein pre-bound to Glutathione-sepharose 4B with […] of ^35S-methionine labeled E2 in binding buffer (25 mM Tris-HCl, pH 7.4; 50 mM NaCl, 5 mM DTT; and 0.5% NP-40) overnight at 4° C. Beads were washed with binding buffer and resolved by SDS-PAGE under reducing conditions. Analysis was by Storm PhosphoImager (Applied Biosystems, Foster City, Calif.). Direct binding assays used wild type His6-MmUbc7 (His6-Ube2G2) and Glutathione-sepharose bound GST fusions. Beadbound GST protein was incubated with 100 ng purified His6-MmUbc7 in binding buffer and washed and eluted as above. After transfer to Hybond-P (Amersham Biosciences) binding was assessed with anti-His6 followed by Enhanced Chemiluminescence ECL; Pierce). Ubiquitin binding studies were performed with binding and washing as above using 1 μg K48 tetra-ubiquitin produced as described (Piotrowski et al., 1997). Detection was by anti-ubiquitin immunoblotting.

gp78 = test: Cycloheximide chase of gp78 in transfected cells; format: cell-based; conditions: compared to wild type gp78
Description: (§3) Transfections of HT1080, NIH 3T3 and HEK 293T cells were carried out ˜24 hr after plating using Polyfect (Qiagen, Valencia, Calif.) and cells harvested after ˜48 hr. J558 cells were transfected by electroporation using Bio-rad GENE pulser II at settings of 250 v, 950uF. Vector without insert was used to equalize total plasmid. In most experiments 0.15 μg of pEGFP-C1 served as an internal control. For experiments not involving immunoprecipitation, 6×10^5 cells were plated in 6 well plates and cell lysis was with Mammalian Protein Extraction Reagent (Pierce). For immunoprecipitation, 2.4×10^6 cells were seeded in 100 mm dishes and cells were lysed in RIPA buffer (1×PBS, 1% Nonidet P40. 0.5% sodium deoxycholate, 0.1% SDS). Lysis buffers were supplemented with Protease Inhibitor Cocktail (Sigma) and 10 mM iodoacetamide. Supernatants were analyzed after a 10,000×g centrifugation using standard techniques for immunoprecipitation, SDS-PAGE, immunoblotting and ECL. Treatment of cells with MG132 (Sigma) was at 50 μM for eight hr. Cycloheximnide was used at 50 μg/ml. All cells were collected at the end of the six hr chase.
(§4) To evaluate protein turnover in more detail, cycloheximide chase experiments were performed (FIGS. 20C and 20D). […] In agreement with FIG. 20A, CD3-δ degradation was accelerated with wild type gp78 (FIGS. 20C and 20D middle panels; effects of full-length forms of gp78 on CD3-δ from FIGS. 20C and 20D are quantified in FIG. 20E).

His6-Ube2G2 = target: T6, His6-Ube2G2 (Mus musculus, UniProt P60605); test: Direct binding of bacterially expressed His6-Ube2G2 to GST fusions; conditions: purified E2, anti-His6 immunoblot
T6 construct: made in house; host or cells: bacteria (pExp17, Gateway)
T6 sequence (P60605 1-165): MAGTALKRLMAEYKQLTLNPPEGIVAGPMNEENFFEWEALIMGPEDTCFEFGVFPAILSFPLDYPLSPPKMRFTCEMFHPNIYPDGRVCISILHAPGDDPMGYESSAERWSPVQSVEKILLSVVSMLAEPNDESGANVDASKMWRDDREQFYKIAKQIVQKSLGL
Description: as §2

ERAD substrate CD3-δ = test: Cycloheximide chase of CD3-δ in co-transfected cells; format: cell-based; conditions: co-transfection with HA-CD3-δ
Description: as §3, §4

endogenous Ube2G2 = target: T7, endogenous Ube2G2 (Homo sapiens, UniProt P60604); test: Co-immunoprecipitation of endogenous Ube2G2 with GFP fusions in HEK 293T cells; format: cell-based; conditions: anti-GFP IP
T7 construct: endogenous in cells; host or cells: HEK 293T
T7 sequence (P60604 1-165): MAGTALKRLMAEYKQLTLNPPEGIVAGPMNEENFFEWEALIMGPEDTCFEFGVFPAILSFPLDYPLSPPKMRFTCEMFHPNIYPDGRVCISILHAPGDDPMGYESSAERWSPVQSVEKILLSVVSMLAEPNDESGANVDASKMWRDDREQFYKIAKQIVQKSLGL
Description: Transfections of HT1080, NIH 3T3 and HEK 293T cells were carried out ˜24 hr after plating using Polyfect (Qiagen, Valencia, Calif.) and cells harvested after ˜48 hr. J558 cells were transfected by electroporation using Bio-rad GENE pulser II at settings of 250 v, 950uF. Vector without insert was used to equalize total plasmid. In most experiments 0.15 μg of pEGFP-C1 served as an internal control. For experiments not involving immunoprecipitation, 6×10^5 cells were plated in 6 well plates and cell lysis was with Mammalian Protein Extraction Reagent (Pierce). […] Supernatants were analyzed after a 10,000×g centrifugation using standard techniques for immunoprecipitation, SDS-PAGE, immunoblotting and ECL. […]
FIG. 6 depicts the specific binding of gp78 residues 574-611 (of SEQ ID NO:2) to endogenous Ube2G2 in HEK 293T cells. Cells were transfected with plasmids encoding GFP fusions of the indicated regions of gp78, and co-immunoprecipitation was evaluated. […]
To determine the specificity of E2 binding in cells, GFP fusions encompassing the E2 binding region were expressed in cells, and co-immunoprecipitation of endogenous E2 was tested using antibodies raised specifically against Ube2g1, Ube2G2 and UbcH5B (FIG. 19B). […] In contrast, and consistent with the in vitro binding data in FIG. 18, no association with endogenous UbcH5B or Ube2g1 was detected (FIG. 19B third and fourth panels, left). […]

| Molecule | binding to in vitro translated yeast Ubc7p (Ubc7p) | binding to in vitro translated Ube2G2/MmUbc7 (Ube2G2/MmUbc7) | binding to in vitro translated UbcH5B (UbcH5B) | binding to in vitro translated Ube2G1 (Ube2G1) | binding of K48 tetra-ubiquitin [1] | gp78 stability (gp78) | direct binding of His6-Ube2G2 (His6-Ube2G2) | effect on CD3-δ degradation (ERAD substrate CD3-δ) | co-immunoprecipitation of endogenous Ube2G2 (endogenous Ube2G2) |
| --- | --- | --- | --- | --- | --- | --- | --- | --- | --- |
| Cue1pC: GST fusion of the cytoplasmic domain of yeast Cue1p (protein, left off: a dimerising Fc or GST, GST fusion of the cytoplasmic domain of yeast Cue1p) QSNQHPSAQRLSATGVNAHGRPQGSTQNALRRTGRVNGGHPVTTQMVETVQNLAPNLHPEQIRYSLENTGSVEETVERYLRGDEFSFPPGFEPSRAPMGANAAVDNNAAGGGEFNDPRKKNMICAENLLDKFHVDLNEDMSNLSFKDLDIEERKRLLVWQARKNLETKLQSDKDLQSLLT | bound | bound | bound to neither | no binding | no binding | – | – | – | – |
| E2-m2: GST-gp78 fusion with residues 579-584 (QRMLVQ) mutated to AAAGGG; in b274 the same mutation in a GFP fusion (protein) MPLLFLERFPWPSLRTYTGLSGLALLGTIISAYRALSQPEAGPGEPDQLTASLQPEPPAPARPSAGGPRARDVAQYLLSDSLFVWVLVNTACCVLMLVAKLIQCIVFGPLRVSERQHLKDKFWNFIFYKFIFIFGVLNVQTVEEVVMWCLWFAGLVFLHLMVQLCKDRFEYLSFSPTTPMSSHGRVLSLLVAMLLSCCGLAAVCSITGYTHGMHTLAFMAAESLLVTVRTAHVILRYVIHLWDLNHEGTWEGKGTYVYYTDFVMELTLLSLDLMHHIHMLLFGNIWLSMASLVIFMQLRYLFHEVQRRIRRHKNYLRVVGNMEARFAVATPEELAVNNDDCAICWDSMQAARKLPCGHLFHNSCLRSWLEQDTSCPTCRMSLNIADNNRVREEHQGENLDENLVPVAAAEGRPRLNQHNHFFHFDGSRIASWLPSFSVEVMHTTNILGITQASNSQLNAMAHQIQEMFPQVPYHLVLQDLQLTRSVEITTDNILEGRIQVPFPTQRSDSIRPALNSPVERPSSDQEEGETSAQTERVPLDLSPRLEETLDFGEVEVEPSEVEDFEARGSRFSKSADERAAAGGGRKDELLQQARKRFLNKSSEDDAASESFLPLEGASSDPVTLRRRMLAAAAERRLQKQQTS | – | loss of binding | – | – | – | stabilized gp78 | disrupted binding | minimal stabilization of CD3-δ | abrogated binding |
